In patent US20230002480A1:

Assays:
Experiment in all cases: cell-based or functional assay
[1] = molecular target: HIV-1 Env of pseudovirus 0260.v5.c36 (HIV-1)
[2] = molecular target: HIV-1 Env of pseudovirus 1012_11_TC21_3257 (HIV-1)
[3] = molecular target: HIV-1 Env of pseudovirus 191955_A11 (HIV-1)
[4] = molecular target: HIV-1 Env of pseudovirus 211-9 (HIV-1)
[5] = molecular target: HIV-1 Env of pseudovirus 231965.c01 (HIV-1)
[6] = molecular target: HIV-1 Env of pseudovirus 231966.c02 (HIV-1)
[7] = molecular target: HIV-1 Env of pseudovirus 3016.v5.c45 (HIV-1)
[8] = molecular target: HIV-1 Env of pseudovirus 6041.v3.c23 (HIV-1)
[9] = molecular target: HIV-1 Env of pseudovirus 6240_08_TA5_4622 (HIV-1)
[10] = molecular target: HIV-1 Env of pseudovirus 6480.v4.c25 (HIV-1)
[11] = molecular target: HIV-1 Env of pseudovirus AC10.0.29 (HIV-1)
[12] = molecular target: HIV-1 Env of pseudovirus BJOX025000.01.1 (HIV-1)
[13] = molecular target: HIV-1 Env of pseudovirus BJOX028000.10.3 (HIV-1)
[14] = molecular target: HIV-1 Env of pseudovirus CNE17 (HIV-1)
[15] = molecular target: HIV-1 Env of pseudovirus CNE19 (HIV-1)
[16] = molecular target: HIV-1 Env of pseudovirus CNE21 (HIV-1)
[17] = molecular target: HIV-1 Env of pseudovirus CNE52 (HIV-1)
[18] = molecular target: HIV-1 Env of pseudovirus CNE53 (HIV-1)
[19] = molecular target: HIV-1 Env of pseudovirus Ce1172_H1 (HIV-1)
[20] = molecular target: HIV-1 Env of pseudovirus Ce1176_A3 (HIV-1)
[21] = molecular target: HIV-1 Env of pseudovirus Ce2010_F5 (HIV-1)
[22] = molecular target: HIV-1 Env of pseudovirus Du156.12 (HIV-1)
[23] = molecular target: HIV-1 Env of pseudovirus HIV-0013095-2.11 (HIV-1)
[24] = molecular target: HIV-1 Env of pseudovirus HIV-16845-2.22 (HIV-1)
[25] = molecular target: HIV-1 Env of pseudovirus P1981_C5_3 (HIV-1)
[26] = molecular target: HIV-1 Env of pseudovirus Q461.e2 (HIV-1)
[27] = molecular target: HIV-1 Env of pseudovirus SC422661.8 (HIV-1)
[28] = molecular target: HIV-1 Env of pseudovirus T250-4 (HIV-1)
[29] = molecular target: HIV-1 Env of pseudovirus T255-34 (HIV-1)
[30] = molecular target: HIV-1 Env of pseudovirus THRO4156.18 (HIV-1)
[31] = molecular target: HIV-1 Env of pseudovirus TRO.11 (HIV-1)
[32] = molecular target: HIV-1 Env of pseudovirus WEAU_d15_410_787 (HIV-1)
[33] = molecular target: HIV-1 Env of pseudovirus X2088_c9 (HIV-1)
[34] = molecular target: HIV-1 Env of pseudovirus ZM109F.PB4 (HIV-1)
[35] = molecular target: HIV-1 Env of pseudovirus ZM247v1(Rev-) (HIV-1)

PGT145 (antibody)
IC50 [1]: > 50 µg/mL
IC80 [1]: > 50 µg/mL
IC50 [2]: 0.009 µg/mL
IC80 [2]: 0.025 µg/mL
IC50 [3]: < 0.001 µg/mL
IC80 [3]: < 0.001 µg/mL
IC50, titer in TZM.bl cells [4]: 0.129 µg/mL
IC80, titer in TZM.bl cells [4]: 0.923 µg/mL
IC50, titer in TZM.bl cells [5]: 0.403 µg/mL
IC80, titer in TZM.bl cells [5]: 15 µg/mL
IC50, titer in TZM.bl cells [6]: < 0.001 µg/mL
IC80, titer in TZM.bl cells [6]: 0.01 µg/mL
IC50, titer in TZM.bl cells [7]: > 50 µg/mL
IC80, titer in TZM.bl cells [7]: > 50 µg/mL
IC50, titer in TZM.bl cells [8]: 0.964 µg/mL
IC80, titer in TZM.bl cells [8]: > 50 µg/mL
IC50 [9]: > 50 µg/mL
IC80 [9]: > 50 µg/mL
IC50, titer in TZM.bl cells [10]: > 50 µg/mL
IC80, titer in TZM.bl cells [10]: > 50 µg/mL
IC50 [11]: 0.01 µg/mL
IC80 [11]: 0.025 µg/mL
IC50, titer in TZM.bl cells [12]: 6.63 µg/mL
IC80, titer in TZM.bl cells [12]: > 50 µg/mL
IC50, titer in TZM.bl cells [13]: > 50 µg/mL
IC80, titer in TZM.bl cells [13]: > 50 µg/mL
IC50 [14]: 0.091 µg/mL
IC80 [14]: 1.16 µg/mL
IC50 [15]: 0.103 µg/mL
IC80 [15]: 1.13 µg/mL
IC50 [16]: < 0.001 µg/mL
IC80 [16]: 0.009 µg/mL
IC50 [17]: 0.02 µg/mL
IC80 [17]: 0.091 µg/mL
IC50 [18]: 0.006 µg/mL
IC80 [18]: 0.084 µg/mL
IC50 [19]: 0.26 µg/mL
IC80 [19]: 2.06 µg/mL
IC50 [20]: > 50 µg/mL
IC80 [20]: > 50 µg/mL
IC50 [21]: > 50 µg/mL
IC80 [21]: > 50 µg/mL
IC50 [22]: 0.001 µg/mL
IC80 [22]: 0.018 µg/mL
IC50 [23]: 9.27 µg/mL
IC80 [23]: > 50 µg/mL
IC50 [24]: > 50 µg/mL
IC80 [24]: > 50 µg/mL
IC50, titer in TZM.bl cells [25]: 5.41 µg/mL
IC80, titer in TZM.bl cells [25]: > 50 µg/mL
IC50 [26]: 7.8 µg/mL
IC80 [26]: > 50 µg/mL
IC50 [27]: 0.024 µg/mL
IC80 [27]: 0.082 µg/mL
IC50 [28]: 0.002 µg/mL
IC80 [28]: 0.039 µg/mL
IC50, titer in TZM.bl cells [29]: > 50 µg/mL
IC80, titer in TZM.bl cells [29]: > 50 µg/mL
IC50 [30]: 0.01 µg/mL
IC80 [30]: 0.029 µg/mL
IC50 [31]: 0.04 µg/mL
IC80 [31]: 0.118 µg/mL
IC50 [32]: 1.95 µg/mL
IC80 [32]: 31.5 µg/mL
IC50, titer in TZM.bl cells [33]: > 50 µg/mL
IC80, titer in TZM.bl cells [33]: > 50 µg/mL
IC50 [34]: 0.042 µg/mL
IC80 [34]: 0.234 µg/mL
IC50 [35]: 7.19 µg/mL
IC80 [35]: > 50 µg/mL

PG9 (antibody)
IC50, titer in TZM.bl cells [1]: 1.69 µg/mL
IC80, titer in TZM.bl cells [1]: 9 µg/mL
IC50, titer in TZM.bl cells [2]: 0.172 µg/mL
IC80, titer in TZM.bl cells [2]: 0.605 µg/mL
IC50, titer in TZM.bl cells [3]: 0.053 µg/mL
IC80, titer in TZM.bl cells [3]: 0.154 µg/mL
IC50, titer in TZM.bl cells [9]: 1.75 µg/mL
IC80, titer in TZM.bl cells [9]: 6.33 µg/mL
IC50, titer in TZM.bl cells [11]: 0.117 µg/mL
IC80, titer in TZM.bl cells [11]: 0.845 µg/mL
IC50, titer in TZM.bl cells [14]: 0.21 µg/mL
IC80, titer in TZM.bl cells [14]: 0.484 µg/mL
IC50, titer in TZM.bl cells [15]: 0.024 µg/mL
IC80, titer in TZM.bl cells [15]: 0.146 µg/mL
IC50, titer in TZM.bl cells [16]: 0.038 µg/mL
IC80, titer in TZM.bl cells [16]: 0.094 µg/mL
IC50, titer in TZM.bl cells [17]: 0.029 µg/mL
IC80, titer in TZM.bl cells [17]: 0.081 µg/mL
IC50, titer in TZM.bl cells [18]: 0.131 µg/mL
IC80, titer in TZM.bl cells [18]: 0.6 µg/mL
IC50, titer in TZM.bl cells [19]: 0.07 µg/mL
IC80, titer in TZM.bl cells [19]: 0.206 µg/mL
IC50, titer in TZM.bl cells [20]: 0.014 µg/mL
IC80, titer in TZM.bl cells [20]: 0.044 µg/mL
IC50, titer in TZM.bl cells [21]: > 50 µg/mL
IC80, titer in TZM.bl cells [21]: > 50 µg/mL
IC50, titer in TZM.bl cells [22]: 0.026 µg/mL
IC80, titer in TZM.bl cells [22]: 0.19 µg/mL
IC50, titer in TZM.bl cells [23]: 0.01 µg/mL
IC80, titer in TZM.bl cells [23]: 0.03 µg/mL
IC50, titer in TZM.bl cells [24]: 4.4 µg/mL
IC80, titer in TZM.bl cells [24]: > 50 µg/mL
IC50, titer in TZM.bl cells [26]: 1.48 µg/mL
IC80, titer in TZM.bl cells [26]: 8.72 µg/mL
IC50, titer in TZM.bl cells [27]: 0.553 µg/mL
IC80, titer in TZM.bl cells [27]: 7.05 µg/mL
IC50, titer in TZM.bl cells [28]: 0.005 µg/mL
IC80, titer in TZM.bl cells [28]: 0.014 µg/mL
IC50, titer in TZM.bl cells [30]: 24.5 µg/mL
IC80, titer in TZM.bl cells [30]: > 50 µg/mL
IC50, titer in TZM.bl cells [31]: 43.2 µg/mL
IC80, titer in TZM.bl cells [31]: > 50 µg/mL
IC50, titer in TZM.bl cells [32]: 4.08 µg/mL
IC80, titer in TZM.bl cells [32]: > 50 µg/mL
IC50, titer in TZM.bl cells [34]: 0.256 µg/mL
IC80, titer in TZM.bl cells [34]: 6.69 µg/mL
IC50, titer in TZM.bl cells [35]: 0.112 µg/mL
IC80, titer in TZM.bl cells [35]: 0.323 µg/mL
